pKi: −log10 of the molar value. Read-outs that look alike come from different tables or passages of the source.

We go through seven substances from paper PMC7057333.

Experiment [1] has as its target LSD1_(172-833), lysine-specific demethylase 1 (human) (UniProt O60341).
Experiment [2] shares this target. Put plainly: enzyme inhibition kinetics (HRP-coupled fluorescence demethylation assay); 25 nM LSD1, substrate H3K4me1_(1-21), 25 mM Tris, 50 mM NaCl, 0.1 mg/mL BSA, pH 8, 1% DMSO; Ki by global fit of competitive inhibition for 1, 11, 24, 28, 31, 33, 34, else from IC50 by Cheng-Prusoff (substrate 20 μM).
Experiment [3] has the same target. This is another data set of the same source.

“lactam 27 (Lys3-Glu6 lactam-bridged H3_(1-11) K4M) (peptide)” displayed a % inhibition of LSD1 demethylase activity at 100 μM peptide in experiment [1] of 65%. The pKi (in general, −log10 of the Ki, conventionally taken in molar units) in experiment [2] is 4.51.
Consider “lactam 28 (Glu3-Lys6 lactam-bridged H3_(1-11) K4M) (peptide)”, for which the % inhibition of LSD1 demethylase activity at 100 μM peptide in experiment [1] was found to be 98%. Besides, the pKi in experiment [2] is 5.40.
For “lactam 29 (A1P-substituted lactam 27) (peptide)”, in experiment [1], the % inhibition of LSD1 demethylase activity at 100 μM peptide came to 90%. In experiment [2], this substance showed a pKi of 5.15.
“lactam 30 (A1P-substituted lactam 28) (peptide)”: in experiment [1], the % inhibition of LSD1 demethylase activity at 100 μM peptide was 75%. In experiment [2], this substance showed a pKi of 4.66.
Regarding “lactam 32 (D-Glu3-Lys6 lactam-bridged H3_(1-11) K4M) (peptide)”, in experiment [1], the % inhibition of LSD1 demethylase activity at 100 μM peptide is less than 20%. Further, the pKi in experiment [2] was less than 4.00.
With “macrocycle 31 (D-Lys3-Glu6 lactam-bridged H3_(1-11) K4M) (peptide)”, the % inhibition of LSD1 demethylase activity at 100 μM peptide in experiment [1] was determined as 100%. This substance also gave a pKi in experiment [2] of 5.64.
In experiment [3], “peptide 20, linear precursor of 21 (allylglycine at positions 3 and 6 of H3_(1-11) K4M)” registered a % inhibition of LSD1 demethylase activity at 100 μM peptide of 95% and an IC50 of inhibition of LSD1 demethylase activity of 10 µM.
